Laboratory results reported in article PMC10318527, “Utilization of dietary mixed-linkage β-glucans by the Firmicute Blautia producta” (The Journal of Biological Chemistry, 2023).

Assays:
[1] = substrate: OC[C@H]1O[C@@H](O[C@@H]2[C@@H](O)[C@H](O[C@H]3[C@H](O)[C@@H](CO)OC(O)[C@@H]3O)O[C@H](CO)[C@H]2O)[C@H](O)[C@@H](O)[C@@H]1O; assay: purified protein, by the assay type; details: other: PAHBAH assay, 100 mM HEPES pH 6.5, 37 °C
Protocol: (§2) 150 μl of a freshly prepared 8:2 mixture of reagent A (50 mM sodium sulfite, 0.3 M 4-hydroxybenzhydrazide and 0.6 M HCl) and reagent B (50 mM trisodium citrate, 10 mM CaCl2, 0.5 M NaOH) were added to 50 μl sample. The reaction cocktail was boiled for 10 min at 100 °C. After the reaction was cooled down, the absorbance was recorded at 410 nm using the SpectraMax i3x multi-mode microplate reader. A calibration curve with different concentrations of glucose (0, 2, 4, 8, 16, 40, 80, 100, 200, 300, and 500 μM) was employed for each experiment to calculate the released amount of glucose (reducing end equivalents). The same samples were also used for control measurement, and the control value was subtracted from test reading prior to calculate kinetics parameters. In all cases, the Km, Vmax, and kcat were analyzed on GraphPad Prism. Three independent replicates were used for each test. TLC analyses were used for understanding the enzymatic degradation profiles of various oligosaccharides.

[2] = substrate: OC[C@H]1O[C@@H](O[C@H]2[C@H](O)[C@@H](O)[C@H](O[C@H]3[C@H](O)[C@@H](CO)OC(O)[C@@H]3O)O[C@@H]2CO)[C@H](O)[C@@H](O)[C@@H]1O; assay: purified protein, by the assay type; details: other: PAHBAH assay, 100 mM HEPES pH 6.5, 37 °C
Protocol: as §2

[3] = substrate: OC[C@H]1O[C@@H](O[C@H]2[C@H](O)[C@@H](O)[C@H](O[C@H]3[C@H](O)[C@@H](O)[C@H](O[C@H]4[C@H](O)[C@@H](CO)OC(O)[C@@H]4O)O[C@@H]3CO)O[C@@H]2CO)[C@H](O)[C@@H](O)[C@@H]1O; assay: purified protein, by the assay type; details: other: PAHBAH assay, 100 mM HEPES pH 6.5, 37 °C
Protocol: as §2

[4] = substrate: OC[C@H]1O[C@@H](O[C@H]2[C@H](O)[C@@H](O)[C@H](O[C@H]3[C@H](O)[C@@H](O)[C@H](O[C@H]4[C@H](O)[C@@H](O)C(O)O[C@@H]4CO)O[C@@H]3CO)O[C@@H]2CO)[C@H](O)[C@@H](O)[C@@H]1O; assay: purified protein, by the assay type; details: other: PAHBAH assay, 100 mM HEPES pH 6.5, 37 °C
Protocol: as §2

[5] = substrate: O=C[C@H](O)[C@@H](O)[C@H](O[C@@H]1O[C@H](CO)[C@@H](O)[C@H](O)[C@H]1O)[C@H](O)CO; assay: purified protein, by the assay type; details: other: PAHBAH assay, 100 mM HEPES pH 6.5, 37 °C
Protocol: as §2

[6] = substrate: OC[C@H]1O[C@@H](O[C@H]2[C@H](O)[C@@H](CO)OC(O)[C@@H]2O)[C@H](O)[C@@H](O)[C@@H]1O; assay: purified protein, by the assay type; details: other: PAHBAH assay, 100 mM HEPES pH 6.5, 37 °C
Protocol: as §2

[7] = substrate: OC[C@H]1O[C@@H](O[C@H]2[C@H](O)[C@@H](O)[C@H](O[C@H]3[C@H](O)[C@@H](O)C(O)O[C@@H]3CO)O[C@@H]2CO)[C@H](O)[C@@H](O)[C@@H]1O; assay: purified protein, by the assay type; details: other: PAHBAH assay, 100 mM HEPES pH 6.5, 37 °C
Protocol: as §2

[8] = substrate: OC[C@H]1O[C@@H](O[C@@H]2[C@@H](O)[C@H](O[C@H]3[C@H](O)[C@@H](CO)OC(O)[C@@H]3O)O[C@H](CO)[C@H]2O)[C@H](O)[C@@H](O)[C@@H]1O; assay: purified protein, by the assay type; type: biochemical, Blautia producta ATCC 27340; details: other: PAHBAH assay, 100 mM HEPES pH 6.5, 37 °C
Protocol: as §2

[9] = substrate: OC[C@H]1O[C@@H](O[C@H]2[C@H](O)[C@@H](O)[C@H](O[C@H]3[C@H](O)[C@@H](CO)OC(O)[C@@H]3O)O[C@@H]2CO)[C@H](O)[C@@H](O)[C@@H]1O; assay: purified protein, by the assay type; type: biochemical, Blautia producta ATCC 27340; details: other: PAHBAH assay, 100 mM HEPES pH 6.5, 37 °C
Protocol: as §2

[10] = substrate: OC[C@H]1O[C@@H](O[C@H]2[C@H](O)[C@@H](O)[C@H](O[C@H]3[C@H](O)[C@@H](O)[C@H](O[C@H]4[C@H](O)[C@@H](CO)OC(O)[C@@H]4O)O[C@@H]3CO)O[C@@H]2CO)[C@H](O)[C@@H](O)[C@@H]1O; assay: purified protein, by the assay type; type: biochemical, Blautia producta ATCC 27340; details: other: PAHBAH assay, 100 mM HEPES pH 6.5, 37 °C
Protocol: as §2

[11] = substrate: OC[C@H]1O[C@@H](O[C@H]2[C@H](O)[C@@H](O)[C@H](O[C@H]3[C@H](O)[C@@H](CO)OC(O)[C@@H]3O)O[C@@H]2CO)[C@H](O)[C@@H](O)[C@@H]1O; assay: Phosphorolysis kinetics of BpGH94MLG (PAHBAH assay); type: biochemical, Blautia producta ATCC 27340; details: other: phosphorolytic reaction, pH 6.5, 37.0 °C
Protocol: (§1) TLC was used for analyzing enzymatic actions. […] Kinetics parameters for BpGH94MLG were determined with G4G3G, G4G4G3G and cellotriose, following a p-hydroxybenzoic acid hydrazide (PAHBAH) reducing sugar assay ([69]).

[12] = substrate: OC[C@H]1O[C@@H](O[C@H]2[C@H](O)[C@@H](O)[C@H](O[C@H]3[C@H](O)[C@@H](O)[C@H](O[C@H]4[C@H](O)[C@@H](CO)OC(O)[C@@H]4O)O[C@@H]3CO)O[C@@H]2CO)[C@H](O)[C@@H](O)[C@@H]1O; assay: as above; type: biochemical, Blautia producta ATCC 27340; details: other: phosphorolytic reaction, pH 6.5, 37.0 °C
Protocol: as §1

[13] = substrate: OC[C@H]1O[C@@H](O[C@H]2[C@H](O)[C@@H](O)[C@H](O[C@H]3[C@H](O)[C@@H](O)C(O)O[C@@H]3CO)O[C@@H]2CO)[C@H](O)[C@@H](O)[C@@H]1O; assay: as above; type: biochemical, Blautia producta ATCC 27340; details: other: phosphorolytic reaction, pH 6.5, 37.0 °C
Protocol: as §1

B1: BpGH3-X62MLG (Blautia producta ATCC 27340 = DSM 2950) (protein)
chain: MENKYVIDWDKYAALARRAAAEGAVLLKNDNQALPLKKETISVFGRIQYHYYKSGTGSGGLVNAKYVIGIMDALQEEKDLTLDEELAAVYRSWIMEHPFDQGSGWAQEPWSQEEMPLDEKMVEEAAARSDTAVIVIGRTAGEDRDASAEKGSYLLTDLEEDMLEKVCRLFKKSIVVLNVGNIIDMKWVEKYNPSAVLYTWQGGQEGGHSAADVLTGRVNPCGKLADTIARDISDYPSTENFGGGDFDIYAEDIYVGYRYFETFARDKVLYPFGFGLSYTSFRTECGPIKRLDGETSVCVKVTNAGSCAGKEVVQMYVEPPQGKLGKPSRNLAAFAKTKCLQPGESQELVLKVTDYYISSYDDSGAAGFKSCYVLENGSYGIYVGTDVRGAEAAGSFYIPETIATSVCTEAAGPVRQFKRMRAKEGGALAWEEAPLRTHKMQERIHKEILPDITYTGNKGFTLGEVFDRDISLNEFLAQLSEEDLCCIVRGEGMCSPKVTPGTAAAFGGVTESLQKLGIPCGCCADGPSGIRMDCGTPAFSMPNGTCLACTFDTELSEELYEMEGAELRKNRIDTLLGPGINIHRNPLNGRNFEYFSEDPYLTGIMASAQLKGMARFGVTGTIKHFAANNQEYHRRLLDSVMSERALREIYLRGFEIAVKEGKAYSIMTTYGAINGLWTASNYDLLTTILRKEWGFEGMVMTDWWADLNDEGGQPSTDNLAAMVRSQNDVYMVTQDSLNNKDNLMESLKNGTLKRGALLRCAGNICRMLMRSPVMERTLGRMSEEEKKAGEVMAGEDKVDFDITYHKVQGSLVLDGTKIDTSKGNSVVYGILLDTFGSYKVRLKVKADSGELAQIPVSVFANGHLEGTVTINGTKGEWIEIEKTIGPLFGPHNYVRLYFAQSGMQIQTVTIELQEKMDRGF
- kcat [1]: 12 ± 0.2 s⁻¹
- kcat/Km [1]: 51000 M⁻¹ s⁻¹
- Km [2]: 230 ± 40 µM
- kcat [2]: 17 ± 0.3 s⁻¹
- kcat/Km [2]: 73000 M⁻¹ s⁻¹
- Km [3]: 250 ± 50 µM
- Km [4]: 450 ± 60 µM
- kcat [4]: 19 ± 0.3 s⁻¹
- kcat/Km [4]: 43000 M⁻¹ s⁻¹
- Km [5]: 200 ± 30 µM
- kcat [5]: 8 ± 0.01 s⁻¹
- kcat/Km [5]: 38000 M⁻¹ s⁻¹
- kcat [6]: 12 ± 0.2 s⁻¹
- kcat/Km [6]: 48000 M⁻¹ s⁻¹
- Km [7]: 260 ± 30 µM
- kcat [7]: 15 ± 0.2 s⁻¹
- kcat/Km [7]: 59000 M⁻¹ s⁻¹

B2: BpGH3-AR8MLG (Blautia producta ATCC 27340 = DSM 2950) (protein)
chain: MKLKNKTFTGTTSNEVTARETENRKLARLAAAEGFVLLKNQDHILPLKKGIKLGLYGAGAVKTIKGGTGSGDVNERECVNICQGLENAGYEITSSAWLEAYASLYEETRLKWRDEILGKLEAYDNNFFEAYSTTPFFMPCGNPVDVDKASDDGADTAIYVLSRIAGENADRHDTEGDYYISAEEKALIAQLSKAYDSLVLVINTGGLVDLAFVQEFDNIKAVLQFVQAGQEGGSAFADVVSGKVTPSGKLADTWAFDYKDYPNSETFSFKNGDVNTEKYQEGIYVGYRYFDTFDVPVLYPFGFGLSYTDFMICTEEIKTVNTESGKPEIAVTVKVTNTGDTYCGKEVVQIYVSCPQGKLAKEYRRLAGFAKTEELKPGESCRITITFPVYQLASFHEENAAWVLEEGTYGVWTGNSIQGAKLAGSLCVDKDAILVQCEHICPVKEELTELTPDSSRMKEKEAAWLEKAAGLPSVHIDAEKITKETVVYTELPERFTGRAGEIVESLSVEQLIQMSAGDPGKGQDAVLGSAGITVPGAAAETSSAASGEPWNLPSIALADGPAGLRLNQKYQVVDGEIVRENFMKSIEKGFFAEPSPEVGTAYYQFCTAIPVGTLLAQTWNAELVKEVGEMIGKEMELFQVTLWLAPGMNIHRNPLCGRNFEYYSEDPLLSGIMASAMTLGVQKVPGCGTTIKHFACNNQEDNRMGSDSVLSERALREIYLKGFEIAVKNSQPMSIMTSYNMINGVHAANCYDICTRAARDEWEFAGAVMTDWTTTFASPRGECTAAGCMRAGNDMVMPGIPKDHENIRRELEEGTLDIRELKRCICNTVNLILQSNRYENAVSYLEQFEGLDAYLSVERSN
- Km [8]: 230 ± 50 µM
- kcat [8]: 12 ± 0.2 s⁻¹
- kcat/Km [8]: 52000 M⁻¹ s⁻¹
- kcat [9]: 17 ± 0.3 s⁻¹
- kcat/Km [9]: 71000 M⁻¹ s⁻¹
- Km [10]: 300 ± 40 µM
- kcat [10]: 20 ± 0.3 s⁻¹
- kcat/Km [10]: 67000 M⁻¹ s⁻¹

B3: BpGH94MLG (Blautia producta) (protein)
chain: MKYGYFDEEKKEYVITRPDTPAPWVNYLGSPEYGAIISNNAGGYSFEKSGANGRILRYVFNNFDQPGRYIYIRDQENKDFWSASWQPVGKPQDVYQCECRHGTAYTNMRAEYSEISSEVLYYVPLGAAYEVWRLRLTNNSDRPRNLCVTGYAEFTNNSNYEQDQVNLQYSQFITQTAFRGNRICQMIHANLDQLEPGKDVDDKQVTERFFGLAGNPVTSWCGDKDGFLGRYHGYDAPKGVIEGKLSCLPNYNGNGCGALSSDFVLKPGEAKEVVFVLGMKKDAEVEEILKRYEIPETVCREEFHKLVKYWHGYLSHFQVKTPSREFNTMVNTWNAYNCFMTFIWSRAASFIYCGLRNGYGYRDTVQDIQGIIHLAPDMALEKIRFMLSAQADNGGGLPLVKFTHNPGHEDTPDDASYVKETGHPAYRADDALWLFPTVYKYIAETGNMDFIDEVIPFANRGKATVYEHLKRAVKFSMDHLGRHGMPAGLYADWNDCLRLGKDGESTFVAMQFYYAMTILKKFAKYKKDVEYMEFLCERQKKLEELIQKFCWDEGRFIRGFTENGEIIGKSTDPEANMWLNPQSWAVISGVANEEQADRVLDVVEKRLNTEYGLVLMDPPYHAHAFDGALAVIYNPGTKENAGIFSQSQGWIILAEALRGHGERAFTYFMENAPAAQNDRADIRKLEPYCYGQFTEGKDSPNFGRSHVHWLTGTASTIMVGCVEGILGIRPDFYGIRLAPAIPKEWEEYEVEKDFRGCHLHIKVKNPGHVESGCEKLVVNGNVVTGSYIPADLLTEQTDIELFIS
- Km [11]: 52 ± 5 µM
- kcat [11]: 1.86 ± 0.022 s⁻¹
- kcat/Km [11]: 35700 M⁻¹ s⁻¹
- Km [12]: 21 ± 2 µM
- kcat [12]: 1.21 ± 0.014 s⁻¹
- kcat/Km [12]: 57600 M⁻¹ s⁻¹
- Km [13]: 28 ± 4 µM
- kcat [13]: 0.67 ± 0.021 s⁻¹
- kcat/Km [13]: 23900 M⁻¹ s⁻¹
